Data: patent US20100068766A1 (WASEDA UNIVERSITY, published 2010)

B1: human Ev1 protein (NCBI accession No. AAF21709) (other, UniProt Q9UI08-2 1-418, looked up)
chain: MATSEQSICQARASVMVYDDTSKKWVPIKPGQQGFSRINIYHNTASNTFRVVGVKLQDQQVVINYSIVKGLKYNQATPTFHQWRDARQVYGLNFASKEEATTFSNAMLFALNIMNSQEGGPSSQRQVQNGPSPDEMDIQRRQVMEQHQQQRQESLERRTSATGPILPPGHPSSAASAPVSCSGPPPPPPPPVPPPPTGATPPPPPPLPAGGAQGSSHDESSMSGLAAAIAGAKLRRVQRPEDASGGSSPSGTSKSDANRASSGGGGGGLMEEMNKLLAKRRKAASQSDKPAEKKEDESQMEDPSTSPSPGTRAASQPPNSSEAGRKPWERSNSVEKPVSSILSRTPSVAKSPEAKSPLQSQPHSRMKPAGSVNDMALDAFDLDRMKQEILEEVVRELHKVKEEIIDAIRQELSGISTT
notes: range 1-418; His tag removed by thrombin; By gel filtration it eluted at approximately 600 kDa (approximately 13-mer multimer); In the pull-down it was either coupled covalently to Affi-Gel 10 beads or free in solution; also called entire-length Ev1 protein; His-Ev1 (before the tag was removed)

Key:
[1] = biological target: B1; assay: pull-down, Ev1 coupled to Affi-Gel 10 beads, SDS-PAGE, Coomassie stain
Description: Thereafter, the obtained mixture was incubated at 4° C. overnight. The Affi-Gel 10-Ev1 beads were washed 3 times with 500 μl of washing buffer 1 (20 mM potassium phosphate (pH 8.5), 30% glycerol, 700 mM NaCl, 5 mM 2-mercaptoethanol, and 0.05% Triton X-100). The Affi-Gel 10-Rad51B beads were washed 3 times with washing buffer 2 (20 mM HEPES-NaOH (pH 7.3), 30% glycerol, 90 mM NaCl, 2 mM 2-mercaptoethanol, 0.1% Triton X-100, 2 mM ammonium sulfate, and 0.1 mM EDTA). Thereafter, a 50% suspension of such Affi-Gel 10-protein was prepared, and it was then preserved at 4° C.
In order to carry out a binding assay, an Affi-Gel 10-protein suspension (30 μl) was incubated with 10 μg of an Ev1 or Rad51B protein at room temperature for 150 minutes. Affi-Gel 10-Ev1 beads were washed 4 times with 100 μl of buffer 1 (20 mM potassium phosphate (pH 8.5), 30% glycerol, 700 mM NaCl, 5 mM 2-mercaptoethanol, and 0.3% Triton X-100). Affi-Gel 10-Rad51B beads were washed 4 times with 100 μl of buffer 2 (20 mM HEPES-NaOH (pH 7.3), 30% glycerol, 90 mM NaCl, 2 mM 2-mercaptoethanol, 2 mM ammonium sulfate, 0.1 mM EDTA, and 0.35% Triton X-100). An SDS-PAGE sample treatment buffer (2×) was directly mixed with the washed beads, and the obtained mixture was then subjected to a heat treatment at 100° C. for 2 minutes. […]

[2] = biological target: the molecule itself; assay: inferred from the pull-down on Rad51B-bound beads; gel filtration (approximately 600 kDa)

Binder	stoichiometric ratio [1]	binding result [2]
Rad51B protein (other, UniProt O15315-1 1-350, looked up, In the pull-down it was either coupled to Affi-Gel 10 beads or free in solution) MGSKKLKRVGLSQELCDRLSRHQILTCQDFLCLSPLELMKVTGLSYRGVHELLCMVSRACAPKMQTAYGIKAQRSADFSPAFLSTTLSALDEALHGGVACGSLTEITGPPGCGKTQFCIMMSILATLPTNMGGLEGAVVYIDTESAFSAERLVEIAESRFPRYFNTEEKLLLTSSKVHLYRELTCDEVLQRIESLEEEIISKGIKLVILDSVASVVRKEFDAQLQGNLKERNKFLAREASSLKYLAEEFSIPVILTNQITTHLSGALASQADLVSPADDLSLSEGTSGSSCVIAALGNTWSHSVNTRLILQYLDSERRQILIAKSPLAPFTSFVYTIKEEGLVLQAYGNS	1 Rad51B:Ev1 (1:1)	–
B1	–	binds
